Legend:
[1] = target: cMyc-tagged C-terminal TLR2 (cTLR2) recombinant protein, C-terminal TIR domain of TLR2 (640-784 amino acids) (UniProt Q9QUN7); test: SPR, cTLR2 immobilised; reference mTIDM
[2] = target: cMyc-tagged C-terminal TLR2 (cTLR2) recombinant protein, C-terminal TIR domain of TLR2 (640-784 amino acids) (UniProt Q9QUN7); test: thermal shift assay of cTLR2 with wtTIDM peptide
[3] = target: cMyc-tagged C-terminal TLR2 (cTLR2) recombinant protein, C-terminal TIR domain of TLR2 (640-784 amino acids) (UniProt Q9QUN7); test: SPR, cTLR2 immobilised, peptide as analyte; equilibrium response versus peptide concentration; wtTIDM peptide
[4] = target: cMyc-tagged C-terminal TLR2 (cTLR2) recombinant protein, C-terminal TIR domain of TLR2 (640-784 amino acids) (UniProt Q9QUN7); test: thermal shift assay of cTLR2 with mTIDM peptide
[5] = target: cMyc-tagged C-terminal TLR2 (cTLR2) recombinant protein, C-terminal TIR domain of TLR2 (640-784 amino acids) (UniProt Q9QUN7); test: SPR, cTLR2 immobilised, peptide as analyte; equilibrium response versus peptide concentration; mTIDM (mutated) peptide

cMyc-tagged C-terminal TLR2 (cTLR2) recombinant protein, C-terminal TIR domain of TLR2 (640-784 amino acids), sequence (Q9QUN7 640-784 limits assumed, form in doubt): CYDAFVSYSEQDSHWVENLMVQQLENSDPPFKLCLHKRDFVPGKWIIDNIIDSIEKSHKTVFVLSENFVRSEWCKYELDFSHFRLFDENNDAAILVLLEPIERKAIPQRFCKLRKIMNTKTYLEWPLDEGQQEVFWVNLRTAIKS

fold stronger affinity than mTIDM [1]	ΔTm (shift of melting temperature) [2]	Kd [3]	ΔTm (shift of melting temperature) [4]	Kd [5]	Binder
2.5 fold	4.96 ° C.	8 µM	–	–	DRQIKIWFQNRRMKWKKPGAHQK [Wild type (wt) TIDM peptide (TLR2-interacting domain of MyD88 joined to Antennapedia homeodomain)]
–	–	–	0.87 ° C.	19 µM	DRQIKIWFQNRRMKWKKPGWHQD [Mutated (m) TIDM peptide]
